The text below walks through data of US20210340273A1 (INHLBRX, published 2021).

In one assay the target is T1, hmc5T4.1.
T1 construct: the rest is mouse 5T4; also called chimeric hmc5T4.1; hybrid mouse/human 5T4 with human residues 1-173 of the extracellular domain; not shown: intracellular Citrine tag fused to the full coding region
T1 chain: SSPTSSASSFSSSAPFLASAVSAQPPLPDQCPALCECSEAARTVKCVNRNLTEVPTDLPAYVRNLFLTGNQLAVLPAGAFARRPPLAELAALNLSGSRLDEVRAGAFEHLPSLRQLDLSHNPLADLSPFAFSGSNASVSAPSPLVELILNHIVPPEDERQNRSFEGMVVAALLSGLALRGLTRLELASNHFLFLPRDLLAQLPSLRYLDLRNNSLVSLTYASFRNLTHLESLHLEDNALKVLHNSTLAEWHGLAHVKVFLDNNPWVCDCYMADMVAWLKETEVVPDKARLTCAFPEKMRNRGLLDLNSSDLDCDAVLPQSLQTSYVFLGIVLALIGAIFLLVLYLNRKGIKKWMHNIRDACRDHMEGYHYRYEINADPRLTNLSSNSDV
As to the kind of experiment: flow cytometry on CHO cells transiently transfected with the 5T4 construct. The text has this:
(§1) In order to determine the location of the epitope recognized by these sdAbs, various mouse:human chimeric 5T4 constructs were generated, wherein various portions of the murine extracellular domain of 5T4 were replaced with that of human 5T4. The constructs were generated by grafting a nucleic acid sequence encoding the specific region of human 5T4 into the cognate region of mouse 5T4 in a mammalian expression plasmid encoding the full 5T4 coding region (extracellular domain, transmembrane domain, intracellular domain) fused to an intracellular Citrine tag. […] CHO cells were transiently transfected with these constructs to enable cell surface expression, and binding was monitored by flow cytometry.
For orientation: Flow cytometry measures light scatter and fluorescence of single cells or particles in a stream.

For assay [1], the target named is T2, human 5T4 construct (Hu), full 5T4 coding region fused to an intracellular Citrine tag, on transfected CHO … (human, UniProt Q13641 32-420).
T2 construct: also called fully human construct; not shown: intracellular Citrine tag
T2 sequence: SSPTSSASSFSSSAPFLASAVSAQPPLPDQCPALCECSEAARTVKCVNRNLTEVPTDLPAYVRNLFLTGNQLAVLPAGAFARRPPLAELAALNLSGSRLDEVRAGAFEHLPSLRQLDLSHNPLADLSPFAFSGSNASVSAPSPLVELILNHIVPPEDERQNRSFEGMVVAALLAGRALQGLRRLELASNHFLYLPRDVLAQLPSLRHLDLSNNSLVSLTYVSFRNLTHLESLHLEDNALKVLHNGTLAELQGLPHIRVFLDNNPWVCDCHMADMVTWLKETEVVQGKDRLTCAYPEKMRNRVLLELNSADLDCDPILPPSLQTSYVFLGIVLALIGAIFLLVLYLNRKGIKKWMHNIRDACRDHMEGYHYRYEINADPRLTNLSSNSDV
The description is as above.
Excerpt: as §1

The target of assay [2] is T3, murine 5T4 construct (Mu), full 5T4 coding region fused to an intracellular Citrine tag, on transfected CHO … (mouse, UniProt Q9Z0L0 32-426).
T3 construct: also called fully murine construct; mouse 5T4 antigen; not shown: intracellular Citrine tag
T3 sequence: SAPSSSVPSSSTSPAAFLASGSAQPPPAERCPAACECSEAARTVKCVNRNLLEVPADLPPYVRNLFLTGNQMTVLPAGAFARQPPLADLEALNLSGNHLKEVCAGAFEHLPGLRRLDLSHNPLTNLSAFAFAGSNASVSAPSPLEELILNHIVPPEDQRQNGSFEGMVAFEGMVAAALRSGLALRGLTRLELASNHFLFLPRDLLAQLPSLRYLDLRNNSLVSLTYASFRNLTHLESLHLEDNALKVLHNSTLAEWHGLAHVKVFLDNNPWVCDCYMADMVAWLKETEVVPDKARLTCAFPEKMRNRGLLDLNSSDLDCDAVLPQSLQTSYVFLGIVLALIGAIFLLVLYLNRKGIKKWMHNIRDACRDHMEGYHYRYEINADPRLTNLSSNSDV
The assay is described as above.
Excerpt: as §1

For assay [3], the target named is T4, CD3 on the surface of primary human T cells or Jurkat reporter cells (human, UniProt P07766 23-207).
T4 construct: whole, on cells; also called CD3 epsilon
T4 sequence (P07766 23-207): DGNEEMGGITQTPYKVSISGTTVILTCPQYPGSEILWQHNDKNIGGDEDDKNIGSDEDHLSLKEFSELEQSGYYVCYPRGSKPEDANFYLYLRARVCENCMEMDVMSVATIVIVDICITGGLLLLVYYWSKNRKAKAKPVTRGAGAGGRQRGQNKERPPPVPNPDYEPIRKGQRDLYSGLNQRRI
In words: printed as Affinity CD3; flow cytometry titration on primary human T cells.

The target of assay [4] is T5, human 5T4 (trophoblast glycoprotein), endogenous on the cell surface (human, UniProt Q13641 32-420).
T5 construct: also called TPBG; 5T4 oncofetal antigen
T5 sequence: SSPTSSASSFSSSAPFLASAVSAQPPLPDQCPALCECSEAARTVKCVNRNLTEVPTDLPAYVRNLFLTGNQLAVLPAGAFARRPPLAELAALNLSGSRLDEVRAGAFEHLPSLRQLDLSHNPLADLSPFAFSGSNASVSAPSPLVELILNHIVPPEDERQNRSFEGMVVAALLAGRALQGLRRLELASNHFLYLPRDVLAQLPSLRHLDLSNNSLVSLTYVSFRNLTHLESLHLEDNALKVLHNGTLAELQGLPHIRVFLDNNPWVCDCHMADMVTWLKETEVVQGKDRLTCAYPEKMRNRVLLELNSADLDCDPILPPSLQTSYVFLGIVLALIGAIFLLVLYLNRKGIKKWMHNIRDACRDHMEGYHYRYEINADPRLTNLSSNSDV
In words: printed as Affinity 5T4; apparent affinity from flow cytometry titration on Ovcar-5 cells. As for the experimental part:
Binding of exemplary 5T4-targeting constrained CD3 engaging constructs set forth in Table E3 to CD3 on the surface of primary T cells and 5T4 expressing cells (Ovcar-5) was assessed by flow cytometry. The T cells were primary T-cells that were negatively enriched from PBMCs isolated from healthy human donor leukopaks. Bound construct was detected with fluorophore-conjugated secondary antibodies specific for the human Fc (anti-human IgG APC secondary antibody) and binding was measured by flow cytometry. Cells incubated with secondary antibody only served as negative controls. The results, from flow cytometry histograms displaying normalized cell counts versus fluorescence at 200 nM of each construct, are shown in FIG. 4A (cx3253), FIG. 4B (cx3264), FIG. 4C (cx3497), FIG. 4D (cx3499), FIG. 4E (cx3547), FIG. 4F (cx3546), FIG. 4G (cx4224), FIG. 4H (cx4913), FIG. 4I (cx3265), […] (cx4912), FIG. 4K (cx3262), FIG. 4L (cx4911), and FIG. 4M (cx4910). […] However, as shown in the top right and bottom panels of each of the figures, the same constructs were not able to bind to T cells in isolation.
Table E4 summarizes the affinity of exemplary molecules for 5T4 or CD3, as determined from flow cytometry, in these studies.

In a further assay the target is T6, hmc5T4.2.
T6 construct: the rest is mouse 5T4; also called chimeric hmc5T4.2; not shown: intracellular Citrine tag fused to the full coding region
T6 chain: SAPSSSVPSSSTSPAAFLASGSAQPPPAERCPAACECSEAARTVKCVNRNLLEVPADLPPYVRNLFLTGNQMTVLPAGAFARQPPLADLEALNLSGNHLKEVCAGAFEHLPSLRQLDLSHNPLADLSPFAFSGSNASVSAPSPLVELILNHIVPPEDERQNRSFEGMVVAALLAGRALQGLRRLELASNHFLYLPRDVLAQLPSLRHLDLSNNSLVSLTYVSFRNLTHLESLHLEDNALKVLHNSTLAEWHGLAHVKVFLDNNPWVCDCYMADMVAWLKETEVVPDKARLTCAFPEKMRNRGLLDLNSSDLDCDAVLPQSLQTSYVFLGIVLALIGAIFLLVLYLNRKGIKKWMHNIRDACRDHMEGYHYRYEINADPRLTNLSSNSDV
As to the kind of experiment: flow cytometry on CHO cells transiently transfected with the 5T4 construct.
Excerpt: as §1

Assay [5] deals with T5, human 5T4 (trophoblast glycoprotein), …. As to the kind of experiment: flow cytometry, sdAb-Fc on 5T4 expressing T47D cells.
Assay [6] has as its target T2, human 5T4 construct (Hu), full 5T4 …. In words: flow cytometry on CHO cells transfected with human, mouse and chimeric 5T4 constructs.
Excerpt: as §1

Assay [7] deals with T3, murine 5T4 construct (Mu), full 5T4 …. In words: flow cytometry on CHO cells transfected with the fully murine 5T4 construct (Mu, FIG. 26C).
Excerpt: as §1

B1: hz12E9v9 sdAb-Fc (Fc fusion)
chain: EVQLVESGGGEVQPGGSLRLSCAASGRPFSSKTMAWFRQAPGKEREFVAAVRWIGGATRYTESVKGRFTISRDNAKNTVYLQMSSLRAEDTAVYYCAAGQAWGTKFTDYSDWGQGTLVTVKP
notes: Humanized variant of 12E9; also called hz12E9v09; hz12E9v9-Fc; not shown: human Fc
On to B1, for which the “EC50 (read off the curve)” value with hmc5T4.1 was ~0.8 nM; in assay [1] it was ~1 nM. The binding result in [2] was “no binding (tested: about 500 nM)”.

B2: cx3264, 5T4-targeted constrained CD3 engaging construct with a 41BB binding domain (bispecific antibody)
chain 1: QVQLQESGGGLVQAGGSLRLSCAASRRPFSSKTMAWFRQTPGKEREFVAAVRWIGGATRYTDSVKGRFSISKDNAINTVYLQTNSLKSEDTAVYYCAAGQTWGTKFTDYSDWGQGTLVTVKPDKTHTCPPCPAPELLGGPSVFLFPPKPKDTLMISRTPEVTCVVVDVSHEDPEVKFNWYVDGVEVHNAKTKPREEQYNSTYRVVSVLTVLHQDWLNGKEYKCKVSNKALPAPIEKTISKAKGQPREPQVYTLPPCRDELTKNQVSLWCLVKGFYPSDIAVEWESNGQPENNYKTTPPVLDSDGSFFLYSKLTVDKSRWQQGNVFSCSVMHEALHNHYTQKSLSLSPTGGSGGGGIEPDIGGSGGSEVQLVESGGGLVQPGGSLRLSCAASGFTFNTYAMNWVRQAPGKCLEWVARIRSKYNNYATYYADSVKGRFTISRDDAKNTLYLQMSSLRAEDTAVYYCVRHGNFGNSYVSWFAYWGQGTLVTVKPQVQLQESGGGLVQAGGSLRLSCAASRRPFSSKTMAWFRQTPGKEREFVAAVRWIGGATRYTDSVKGRFSISKDNAINTVYLQTNSLKSEDTAVYYCAAGQTWGTKFTDYSDWGQGTLVTVKP
chain 2: not shown
For B2, the Kd in assay [3] is > 200 nM; in [4] it was 0.145 nM.

B3: hz16G10v11 sdAb-Fc (Fc fusion)
chain: EVQLVESGGGEVQPGGSLRLSCAASGRPFSSYAMGWFRQAPGKERETVAAVSRNAGSSYYAESVKGRFTISRDNAKNTVYLQMSSLRAEDTAVYYCAARSAAYSRSSETYTEKHDYTYWGQGTLVTVKP
notes: Humanized variant of 16G10, linked to a human Fc; also called hz16G10v11-Fc; cx7885; not shown: human Fc
As for B3, the “EC50 (read off the curve)” value is ~2 nM with hmc5T4.2 and ~3 nM in assay [1]. Moreover, in assay [2], the binding result is recorded as “no binding (tested: about 500 nM)”.

B4: hz14B5v17 sdAb-Fc (Fc fusion)
chain: EVQLVESGGGEVQPGGSLRLSCAASERPFGTYAMGWFRQAPGKERDLVAAVSRNAGASYYAESVKGRFTISRDNAKNTVYLQMSSLRAEDTAVYYCAARSAAYSRSSEVYTGKDEYYYWGQGTLVTVKP
notes: Humanized variant of 14B5, linked to a human Fc; not shown: human Fc
For the molecule B4, the values for the binding result in assay [5], in [6] and in [7] were “binds”, “binds” and “no binding”, respectively.

The EC50 (read off the curve) is the midpoint of the concentration-response curve. Higher therefore signals lower potency in that assay.
